Assay results published in publication PMC9542875.

Assays:
[1] = molecular target: allophycocyanin αβ dimer (purified APC, Sigma-Aldrich A7472) (UniProt P72504); experiment: native MS; purified APC, 1 μM hexamer (6 μM bilin); 100 mM ammonium acetate; without metal ions and with Ag+, Cu2+, Fe2+/3+ or Zn2+ (oligomeric equilibrium unchanged on a short timescale; prolonged exposure to Cu2+ gives dissociation towards the dimer)
[2] = molecular target: phycocyanin αβ dimer (Arthrospira maxima CCAP 1475/9) (Arthrospira maxima (CCAP 1475/9)); experiment: native MS; purified PC without metal ions, 1 μM hexamer (Fig. 1D); 100 mM ammonium acetate pH 6.8; nano-electrospray, Orbitrap; hexamer to αβ dimers
[3] = molecular target: phycocyanin αβ dimer (Arthrospira maxima CCAP 1475/9) (Arthrospira maxima (CCAP 1475/9)); experiment: native MS; purified PC (24 μM bilin) with Ag+ at 0.25 and 0.5 bilin equivalents; 100 mM ammonium acetate

Substance: allophycocyanin αβ dimer (purified APC, Sigma-Aldrich A7472) (from UniProt P72504 1-161; P72505 1-161) (complex)
- stoichiometry N [1]: 3

Substance: phycocyanin αβ dimer (Arthrospira maxima CCAP 1475/9) (from UniProt P72509 1-162; P72508 1-172) (complex)
- stoichiometry N [2]: 3
- stoichiometry N [3]: 2
